± gives the uncertainty stated by the source.
B1: DnaJ homolog subfamily C member 5, residues 16 to 77; numbered along this chain, Q9H3Z4 (parent)
chain: LYHVLGLDKNATSDDIKKSYRKLALKYHPDKNPDNPEAADKFKEINNAHAILTDATKRNIYD

Variants of: B1
Test: abundance fitness (aPCA) (normalised: wild type 0, dead -1); higher = more abundant; growth selection in yeast, the domain comes from the species named
Settings: Homo sapiens

Variant | abundance fitness
LYHVLGLDKNATSDDIKKSYRKLALKYHPDKNPDFPEAADKFKEINNAHAILTDATKRNIYD | -0.309 ± 0.17
LYHVLGLDKNATSDDIKKSYRKLALKYHPDKNPDGPEAADKFKEINNAHAILTDATKRNIYD | -0.281 ± 0.072
LYHVLGLDKNATSDDIKKSYRKLALKYHPDKNPDHPEAADKFKEINNAHAILTDATKRNIYD | -0.197 ± 0.094
LYHVLGLDKNATSDDIKKSYRKLALKYHPDKNPDIPEAADKFKEINNAHAILTDATKRNIYD | -0.255 ± 0.14
LYHVLGLDKNATSDDIKKSYRKLALKYHPDKNPDKPEAADKFKEINNAHAILTDATKRNIYD | -0.194 ± 0.11
LYHVLGLDKNATSDDIKKSYRKLALKYHPDKNPDMPEAADKFKEINNAHAILTDATKRNIYD | -0.431 ± 0.088
LYHVLGLDKNATSDDIKKSYRKLALKYHPDKNPDQPEAADKFKEINNAHAILTDATKRNIYD | -0.265 ± 0.1
LYHVLGLDKNATSDDIKKSYRKLALKYHPDKNPDRPEAADKFKEINNAHAILTDATKRNIYD | -0.282 ± 0.082
LYHVLGLDKNATSDDIKKSYRKLALKYHPDKNPDSPEAADKFKEINNAHAILTDATKRNIYD | -0.041 ± 0.089
LYHVLGLDKNATSDDIKKSYRKLALKYHPDKNPDTPEAADKFKEINNAHAILTDATKRNIYD | -0.143 ± 0.086
LYHVLGLDKNATSDDIKKSYRKLALKYHPDKNPDVPEAADKFKEINNAHAILTDATKRNIYD | -0.255 ± 0.061
LYHVLGLDKNATSDDIKKSYRKLALKYHPDKNPDWPEAADKFKEINNAHAILTDATKRNIYD | -0.317 ± 0.095
LYHVLGLDKNATSDDIKKSYRKLALKYHPDKNPDNPCAADKFKEINNAHAILTDATKRNIYD | -0.206 ± 0.074
LYHVLGLDKNATSDDIKKSYRKLALKYHPDKNPDNPDAADKFKEINNAHAILTDATKRNIYD | -0.238 ± 0.13
LYHVLGLDKNATSDDIKKSYRKLALKYHPDKNPDNPFAADKFKEINNAHAILTDATKRNIYD | -0.01 ± 0.09
LYHVLGLDKNATSDDIKKSYRKLALKYHPDKNPDNPGAADKFKEINNAHAILTDATKRNIYD | -0.063 ± 0.059
LYHVLGLDKNATSDDIKKSYRKLALKYHPDKNPDNPHAADKFKEINNAHAILTDATKRNIYD | 0.004 ± 0.18
LYHVLGLDKNATSDDIKKSYRKLALKYHPDKNPDNPIAADKFKEINNAHAILTDATKRNIYD | -0.406 ± 0.17
LYHVLGLDKNATSDDIKKSYRKLALKYHPDKNPDNPLAADKFKEINNAHAILTDATKRNIYD | -0.172 ± 0.062
LYHVLGLDKNATSDDIKKSYRKLALKYHPDKNPDNPMAADKFKEINNAHAILTDATKRNIYD | -0.217 ± 0.13
LYHVLGLDKNATSDDIKKSYRKLALKYHPDKNPDNPNAADKFKEINNAHAILTDATKRNIYD | 0.042 ± 0.17
LYHVLGLDKNATSDDIKKSYRKLALKYHPDKNPDNPPAADKFKEINNAHAILTDATKRNIYD | -0.441 ± 0.12

Variant | abundance fitness
LYHVLGLDKNATSDDIKKSYRKLALKYHPDKNPDNPQAADKFKEINNAHAILTDATKRNIYD | 0.079 ± 0.081
LYHVLGLDKNATSDDIKKSYRKLALKYHPDKNPDNPRAADKFKEINNAHAILTDATKRNIYD | -0.117 ± 0.05
LYHVLGLDKNATSDDIKKSYRKLALKYHPDKNPDNPSAADKFKEINNAHAILTDATKRNIYD | 0.036 ± 0.069
LYHVLGLDKNATSDDIKKSYRKLALKYHPDKNPDNPTAADKFKEINNAHAILTDATKRNIYD | -0.011 ± 0.071
LYHVLGLDKNATSDDIKKSYRKLALKYHPDKNPDNPVAADKFKEINNAHAILTDATKRNIYD | 0.041 ± 0.054
LYHVLGLDKNATSDDIKKSYRKLALKYHPDKNPDNPWAADKFKEINNAHAILTDATKRNIYD | -0.171 ± 0.068
LYHVLGLDKNATSDDIKKSYRKLALKYHPDKNPDNPYAADKFKEINNAHAILTDATKRNIYD | -0.226 ± 0.11
LYHVLGLDKNATSDDIKKSYRKLALKYHPDKNPDNPECADKFKEINNAHAILTDATKRNIYD | -0.401 ± 0.16
LYHVLGLDKNATSDDIKKSYRKLALKYHPDKNPDNPEDADKFKEINNAHAILTDATKRNIYD | -0.137 ± 0.099
LYHVLGLDKNATSDDIKKSYRKLALKYHPDKNPDNPEEADKFKEINNAHAILTDATKRNIYD | -0.193 ± 0.14
LYHVLGLDKNATSDDIKKSYRKLALKYHPDKNPDNPEFADKFKEINNAHAILTDATKRNIYD | -0.194 ± 0.15
LYHVLGLDKNATSDDIKKSYRKLALKYHPDKNPDNPEHADKFKEINNAHAILTDATKRNIYD | -0.169 ± 0.13
LYHVLGLDKNATSDDIKKSYRKLALKYHPDKNPDNPEIADKFKEINNAHAILTDATKRNIYD | -0.043 ± 0.12
LYHVLGLDKNATSDDIKKSYRKLALKYHPDKNPDNPEKADKFKEINNAHAILTDATKRNIYD | -0.338 ± 0.12
LYHVLGLDKNATSDDIKKSYRKLALKYHPDKNPDNPELADKFKEINNAHAILTDATKRNIYD | -0.243 ± 0.069
LYHVLGLDKNATSDDIKKSYRKLALKYHPDKNPDNPEMADKFKEINNAHAILTDATKRNIYD | -0.13 ± 0.097
LYHVLGLDKNATSDDIKKSYRKLALKYHPDKNPDNPENADKFKEINNAHAILTDATKRNIYD | -0.296 ± 0.17
LYHVLGLDKNATSDDIKKSYRKLALKYHPDKNPDNPEPADKFKEINNAHAILTDATKRNIYD | -0.559 ± 0.14
LYHVLGLDKNATSDDIKKSYRKLALKYHPDKNPDNPEQADKFKEINNAHAILTDATKRNIYD | -0.371 ± 0.12
LYHVLGLDKNATSDDIKKSYRKLALKYHPDKNPDNPERADKFKEINNAHAILTDATKRNIYD | -0.279 ± 0.063
LYHVLGLDKNATSDDIKKSYRKLALKYHPDKNPDNPESADKFKEINNAHAILTDATKRNIYD | -0.088 ± 0.092
